According to the nanobody polyreactivity screen of Harvey et al. (2022):

Test: yeast display, Sf9 membrane polyspecificity reagent, FACS + sequencing; frameworks hold sequencing errors
Method in brief: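 Polyreactivity labels are assigned by the sorting gate from which each nanobody was recovered. The gates were low and high (top ~1%), set on anti-HA fluorescence for expression and streptavidin fluorescence for reagent binding. Before sorting, galactose-induced (36–48 hours) yeast display cells were stained for 1 hour at 4 °C with 10% biotinylated, detergent-solubilized Sf9 membrane reagent.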

Sequence | polyreactivity (PSR sort gate)
QVQHVESGGGLVQAGGSLRLSCAASGRTFSRYAMGWYRQAPGKERELVAAISSRGGSTYYADSVKGRFTISRDYAKNTVYLQMNSLKPEDTAVYYCNADSKVDQYGYDYWGQGTQVTVSS | high polyreactivity
QVQLQESGRGLVQAGGSLRLSCAASGYISYFVGMGWYRQAPGKEREFVASIADGSNTYYADSVKGRFTISRDNAKNTVCLQRNSLKPEVTAVYYCAVEDSWTYRFDYWGEGTQVTVSS | high polyreactivity
QVQLVESGGGLVQAGGSLRLSCADSGSTFEYNDMGWYRQEPGKERELVASSTYYADSVQGRFTISRDNAKNTVYLQMNSLKPEDTAVYFCAREQGVNRNHDYWGQGTLVTVSS | low polyreactivity
QVQLVESGGGLVQAGGSLRLICAASGTNFVFNAIGWYRQAPGKERELVAINSGGSTYYADSVKGRFTNSRDNAKNTVFLQMNSLIPEDTAVYYCAKDRLRVWRFDYWGQGTQVTVST | low polyreactivity
QVQLVESGGGLVQAGGSLRLSCAASGRIFDLNAMGWYRQAPGKERELVAVIDSYGSTYYADSVKGRFTISRDNAKNTVYLQMNSQKPEDSAVYYCTKYWYSRHVRYWAYYAEQRYDYWGQGTQVTVSS | low polyreactivity
QVQLVESGGGLVQAGGSLRLSCAASGFTFANYAMGWYRQAPGKERELVASITRSGGSTYYADSVKGRFTISRDNAKNTVYLQMNSLKPEDTAVYYCAKDRRRWYYTRDYWGQGTQVTVSS | low polyreactivity
QVQLVESGGGLVQAGGSLRLSSAASGIIFTYYAMGWYRQAPGKERELVAAISSGGGSTYYADSVKGRFTISRDNAKNTVYLQMNSLKPEDTAVYYCNADYYFVYTYLHDYWGQGTQVTVSS | low polyreactivity
QFKLVESGGGLVQAGGSLRLSCAASGSIVERKTMGWYRQAPGKEMEFVAGITQSGGRTYYADSVKGRFTISRDNAKNTVYLQMNSLKPEDTAVYYCATKTPRAWSYGYWGQGTQVTVSS | high polyreactivity
KVQLVESGGGLVQAGGSLRVRCAASGFTFGVYAMGWYRQAPGKEREFVAVITWRGGRTYYADSVKGRFTISRDNAQNTVYLQMNSLKPEDTGVYYCNARPRIYLTLYYWGQGTQVSVSS | high polyreactivity
QVQLVESGGGLVQAGGSLRLSCAASGGIFWYNAMGWYRQAPGKERELVADISSSGITYYADSVKGRFTISRDNAKNTVYLQMKSLKPEDTAVYYCAADSTTRPGLRVYDDYDYWGQGTQVTVSS | low polyreactivity
QVQIVESGGGLVQAGGSLRLSCAASVFTFGENAMGWYRQAPGKERELVAAITSGDGTSYADSVKGRFTISRDNAKYTVYLQMNSLKPEDTSVYYCAADVGDELYYSTYDYWGQGTQVTVSS | low polyreactivity
QVQLVESGGGLVQAGGSLPLSCAASGFIFTSNAMGWYRQAPGKERELVASISGNGGRTNYADSVKGRFTISRDNAKNTVYLQMNSLKPDDTAVYYCAARVRRFLNRVSRYPHDYWGQGTQVTVSS | high polyreactivity
QVQLVESGGGLVQAGGSLRLSCAASGRTFSINAMGWYRQAPGKERELVAAITWSGGSTYYADSVKGRFTISRDNAKNTVYLQMNSLKPEDTAVYYCNAGLGKFPVKGGRRYRLDYWGQGTQVTVSS | low polyreactivity
QVQLVESGGGLVQAGGSLRLICAASGRTFGVYSMGWYRQAPGKERELVAAISATGGSTYYADSVKGRFTISRDNAKNTVYLQMNSLKPEDTAVYYCARGGTTLYWGQGTQVTVSS | high polyreactivity
QDQLVESGGGIVQAGVSLRLSCAANGIIFDYYAMGWYRQAPGKERELVAAINRNGGTTYYADSVKGRFTISRDNAKNTVYLQMICLKPEDTAVYYCAAVDFGWSTYYYWGQGTQVTVAS | high polyreactivity
QVQLVESGGGLVQAGGSLRLSCAASGLTFKYYAMGWYRQAPGKERELVAAITATGGLTYYADSEKGRFTISRDNAKKTVYLQMNSLKPEDTAVYYCNARQHQTYYFYKHDYWGQGTQVTVSS | high polyreactivity
QVQLVESGGGLVQAGGSLRLSCAASGNIFSSYAMGWYRQAPGKERELVARITTSAGRTYYADSVKGRFTISRDNAKNTVYLQMNSLKREETAVYSCAARGQSAYSIWRYYYWGQGTQVTVSS | high polyreactivity
